Experimental data: paper PMC7330101

Target: SUN2 (human (endogenous in HUVECs)) (UniProt Q9UH99)
Assay: proximity ligation; Duolink in situ PLA on fixed, saponin-permeabilised HUVECs with primary antibodies against SUN2 and Nesprin1; cells exposed to PS (12 ± 4 dynes/cm^2) or OS (0.5 ± 4 dynes/cm^2) for 6 h

UniProt Q9UH99, sequence (Q9UH99 whole entry): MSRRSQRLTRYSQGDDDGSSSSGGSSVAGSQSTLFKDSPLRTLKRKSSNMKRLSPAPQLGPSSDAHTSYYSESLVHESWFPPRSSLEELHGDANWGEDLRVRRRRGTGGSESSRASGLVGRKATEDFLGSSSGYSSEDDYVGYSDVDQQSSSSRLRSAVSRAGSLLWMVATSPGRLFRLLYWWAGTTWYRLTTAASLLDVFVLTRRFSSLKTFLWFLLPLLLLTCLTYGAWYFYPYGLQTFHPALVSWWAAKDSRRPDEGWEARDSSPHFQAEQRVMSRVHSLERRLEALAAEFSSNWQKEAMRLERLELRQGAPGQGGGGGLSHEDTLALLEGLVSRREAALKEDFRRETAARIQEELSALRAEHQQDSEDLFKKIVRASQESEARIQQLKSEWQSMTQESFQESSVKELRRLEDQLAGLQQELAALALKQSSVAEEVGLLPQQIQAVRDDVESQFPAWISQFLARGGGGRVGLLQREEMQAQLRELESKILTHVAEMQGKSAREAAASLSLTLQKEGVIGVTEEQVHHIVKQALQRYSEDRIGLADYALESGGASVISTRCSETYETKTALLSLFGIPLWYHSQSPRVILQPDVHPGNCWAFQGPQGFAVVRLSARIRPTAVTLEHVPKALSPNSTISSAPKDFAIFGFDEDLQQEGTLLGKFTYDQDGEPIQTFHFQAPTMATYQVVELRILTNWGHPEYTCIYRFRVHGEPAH

## Nesprin1, Q8NF91 1-8797
  PLA punctuated signals per cell (cells exposed to OS): 2 per cell
  PLA punctuated signals per cell (cells exposed to PS): 7 per cell
